Results as given in patent US20260275312, “CRISPR NUCLEASE POLYPEPTIDES AND GENE EDITING SYSTEMS COMPRISING SUCH” (ARBOR BIOTECHNOLOGIES, INC., published 2026).
Numbering of substitutions follows the chain as printed.

Experiments:
[1] = molecular target: T1, Nuclease W E715R (synthetic construct, E715R); assay: cell_activity; HEK293T; PAM AAA; details: tags: N-term SV40 NLS, XTEN linker + C-term nucleoplasmin NLS
T1 chain: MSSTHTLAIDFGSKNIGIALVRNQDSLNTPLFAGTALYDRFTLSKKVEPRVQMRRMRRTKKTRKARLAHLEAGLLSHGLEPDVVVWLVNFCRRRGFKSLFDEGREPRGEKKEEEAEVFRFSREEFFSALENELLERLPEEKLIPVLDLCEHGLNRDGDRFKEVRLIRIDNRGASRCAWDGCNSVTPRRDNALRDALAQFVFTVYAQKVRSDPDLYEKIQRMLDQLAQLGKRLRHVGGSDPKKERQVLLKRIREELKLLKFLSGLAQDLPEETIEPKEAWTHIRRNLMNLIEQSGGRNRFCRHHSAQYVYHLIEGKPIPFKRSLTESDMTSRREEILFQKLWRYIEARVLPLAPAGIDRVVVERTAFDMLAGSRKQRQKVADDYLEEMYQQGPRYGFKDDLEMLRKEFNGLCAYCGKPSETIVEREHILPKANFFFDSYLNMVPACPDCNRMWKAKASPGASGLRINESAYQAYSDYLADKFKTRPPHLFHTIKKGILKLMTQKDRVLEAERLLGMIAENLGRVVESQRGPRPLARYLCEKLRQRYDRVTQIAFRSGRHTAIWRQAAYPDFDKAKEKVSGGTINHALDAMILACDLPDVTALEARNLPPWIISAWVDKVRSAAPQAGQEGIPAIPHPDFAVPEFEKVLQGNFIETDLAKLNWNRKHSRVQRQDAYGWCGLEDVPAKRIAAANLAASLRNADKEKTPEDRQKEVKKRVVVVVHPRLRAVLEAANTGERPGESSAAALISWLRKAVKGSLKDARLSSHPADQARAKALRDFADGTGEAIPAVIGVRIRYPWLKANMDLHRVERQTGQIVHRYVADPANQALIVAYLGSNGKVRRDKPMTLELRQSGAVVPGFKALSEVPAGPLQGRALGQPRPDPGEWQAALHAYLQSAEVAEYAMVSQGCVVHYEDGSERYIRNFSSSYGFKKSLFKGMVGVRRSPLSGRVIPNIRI
Description: (§1) Approximately 16 hours prior to transfection, 25,000 HEK293T cells in DMEM/10% FBS+Pen/Strep (D10 media) were plated into each well of a 96-well plate. On the day of transfection, the cells were 50-90% confluent. For each well to be transfected, a mixture of Lipofectamine 2000™ (ThermoFisher Scientific) and Opti-MEM™ (ThermoFisher Scientific) was prepared and incubated at room temperature for 5 minutes (Solution 1). After incubation, the Lipofectamine 2000™:Opti-MEM™ mixture was added to a separate mixture containing the CRISPR nuclease plasmid (NLS-tagged), RNA guide plasmid, and Opti-MEM™ (Solution 2). In the case of negative controls, the CRISPR nuclease plasmid was excluded. Solutions 1 and 2 were mixed by pipetting up and down, then incubated at room temperature for 25 minutes. Following incubation, the Solution 1 and 2 mixture was added dropwise to each well of a 96-well plate containing the cells. Approximately 72 hours post transfection, cells were trypsinized by adding TrypLE™ (Thermo Fisher Scientific) to the center of each well and incubating at 37° C. for approximately 5 minutes. D10 media was then added to each well and mixed to resuspend cells. […]
(§2) Cells were transfected, and samples were prepared for NGS as described in Example 1. Indel ratios, referring to the percentage of NGS reads comprising indels, were calculated for the reference and for each variant. […]

[2] = molecular target: T2, Nuclease W S925R (synthetic construct, S925R); assay: cell_activity; HEK293T; PAM AAA; details: tags: N-term SV40 NLS, XTEN linker + C-term nucleoplasmin NLS
T2 chain: T1 chain with R715E, S925R
Description: as §1, §2

B1: W EMX1-T5 RNA guide ; EMX1-T5 target (W) (ssRNA ; dsDNA)
RNA: UAAACUACAGUGGUGCCUGGGUUUCAGCUACCCUGAGUUUCUCAACUCCGUUGAGACUUCCUCAGGUUCAAGCUGAAAAGAGCAUCUGUCCGGAAGGACCACUCCGGGUUAGGGCAGACCCGGCUCUUGGGCUUCCUUGGUCUUUGACUCUGGAGGAAACCUUCCGGCGUGUCGCAAGACAAGAUGUGAGCCUG
DNA 1: TAAACTACAGTGGTGCCTGG
DNA 2: CCAGGCACCACTGTAGTTTA
In the case of B1, the “fold change in indel ratio vs reference” value [1] is reported as 3.94 fold indel vs reference and the “fold change in indel ratio vs reference” value [2] is reported as 3.44 fold indel vs reference.
